From patent US20020086331

Target: T1, Nit domain of C. elegans NitFhit, O76463
T1 chain: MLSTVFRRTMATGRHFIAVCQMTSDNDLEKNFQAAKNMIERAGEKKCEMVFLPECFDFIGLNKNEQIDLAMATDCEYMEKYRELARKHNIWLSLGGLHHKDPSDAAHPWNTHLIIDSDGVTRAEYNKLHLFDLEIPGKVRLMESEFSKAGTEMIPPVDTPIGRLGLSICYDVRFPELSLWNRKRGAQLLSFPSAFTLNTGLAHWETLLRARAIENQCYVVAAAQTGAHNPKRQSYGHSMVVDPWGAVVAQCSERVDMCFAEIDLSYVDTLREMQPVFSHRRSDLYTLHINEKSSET

B1: Fhit domain of C. elegans NitFhit (protein)
chain: GGLKFARFNIPADHIFYSTPHSFVFVNLKPVTDGHVLVSPKRVVPRLTDLTDAETADLFIVAKKVQAMLEKHHNVTSTTICVQDGKDAGQTVPHVHIHILPRRAGDFGDNEIYQKLASHDKEPERKPRSNEQMAEEAVVYRNLM
  activity of worm NitFhit on ApppBODIPY relative to human Fhit (kcat/Km): worm NitFhit displays only 22% of the activity of human Fhit on ApppBODIPY
  activity of worm NitFhit on GpppBODIPY relative to human Fhit (kcat/Km): it displays 109% of the activity of human Fhit on GpppBODIPY
